The results in this text go back to article PMC3785714 (Biochemical Society transactions, 2012).

The data set concerns the molecule itself.

B1: p150CC1 (residues 221-509) of dynactin p150Glued (domain or fragment, UniProt P13496 221-509, looked up)
chain: ALLEAQKTSAELQAQLADLTEKLETLKQRRNEDKERLREFDKMKIQFEQLQEFRTKIMGAQASLQKELLRAKQEAKDAIEAKEQHAQEMADLADNVEMITLDKEMAEEKADTLQLELESSKERIEELEVDLELLRSEMQNKAESAIGNISGGGDSPGLSTYEFKQLEQQNIRLKETLVRLRDLSAHDKHDIQKLSKELEMKRSEVTELERTKEKLSAKIDELEAIVADLQEQVDAALGAEEMVEQLAEKKMELEDKVKLLEEEIAQLEALEEVHEQLVESNHELELDLR
On to B1, for which the “stoichiometry N” value is 2.

As a reminder, the stoichiometry N is the number of molecules, sites or subunits per partner or assembly.
